From patent US20060024313A1, “Agents that disrupt dimer formation in DPP-IV family of prolyl dipeptidases” (priority 2004, published 2006)
Where “and” joins values, the source holds several entries; their conditions need not be identical. Equal values may be shown once. Marks after values point to notes of the source that are not given here.

Assays:
[1] = Analytical ultracentrifugation (AUC): sedimentation velocity and equilibrium; format: physicochemical; details: for Stokes' radius (Rs): sedimentation velocity experiments
Method: Buffer was changed using an Amicon device and DPP-IV proteins were allowed to equilibrate for at least four hours or longer as indicated in the text at 25° C. after buffer changes. The sedimentation coefficients (S) of the enzyme were estimated by a Beckman-Coulter XL-A analytical ultracentrifuge with an An60Ti rotor as described (25). Sedimentation velocity analysis was performed at 40,000 rpm at 25° C. with standard double sector aluminum centerpieces. The UV absorption of the cells was scanned every 5 min for 4 hours. Sedimentation equilibrium was performed at 20° C. with six-channel open centerpieces and then centrifuged at 12,000 rpm for 12 hours. The data from both sedimentation velocity and sedimentation experiments were analyzed with the SedFit version 8.7 program to obtain molecular weights and sedimentation coefficients (25). Sednterp version 1.07 program is used to obtain solvent density, viscosity, Stokes' radius (Rs) and anhydrous frictional ratio (f/fo).

DPP-IV [2] = assay: Kinetic constant measurements with chromogenic substrate H-Gly-Pro-pNA; format: biochemical, human; details: for Km / kcat: substrate H-Gly-Pro-pNA
Method: To measure the kinetic parameters, the chromogenic substrate H-Gly-Pro-pNA was utilized to initiate the reaction, which was monitored at OD 405 nm as a function of time (21). […] The initial rate was measured with less than 10% substrate depletion for the first 10 to 300 seconds. The steady-state parameters, kcat and Km, were determined from initial velocity measurements at 0.5 to 5 Km of the substrate concentrations. Lineweaver-Burk plots were analyzed using non-linear regression of the Michaelis-Menten equation. Correlation coefficients better than 0.99 were obtained throughout.

[3] = Size exclusion chromatography (gel filtration, Superdex 200); format: physicochemical; details: gel filtration experiments; PBS buffer
Method: Chemical crosslinking in intact cells was conducted as described (24). Size exclusion chromatography was conducted at 4° C. Purified proteins (0.5 ml at a concentration of 5 uM) were applied to a Superdex 200 10/30 column (10×300-310 mm) pre-equilibrated with PBS. The sample was eluted with the same buffer at 0.3 ml/min and 0.25 ml fractions were collected. The Superdex 200 10/30 column was calibrated with the Stokes Radii of ferritin (6.1 nm), catalase (5.22 nm), aldolase (4.81 nm), albumin (3.55 nm), ovalbumin (3.05 nm) and chymotrypsinogen A (2.09 nm) from Amersham-Pharmacia.

DPP-IV [4] = assay: Dilution experiment (specific activity after two-fold dilutions); format: biochemical, human; details: 200 nM to 1.6 nM enzyme, 16 hours at 25° C., 10 uM H-Gly-Pro-pNA
Method: Enzyme concentrations ranging from 200 nM to 1.6 nM were used in the dilution experiments. The experiments were carried out with consecutive two-fold dilutions in PBS containing 0.1% BSA and 1 mM DTT (dithiothreitol). The solution after dilution was incubated at 25° C. for 16 hours to ensure attainment of dimer-monomer equilibrium. The reaction was initiated by adding the substrate H-Gly-Pro-pNA at a final concentration of 10 uM for both wild type DPP-IV and H750A proteins. The initial rate of the reaction was recorded and converted to specific activity.

Molecule | quaternary structure (subunit composition) by sedimentation velocity ([1]; High salt buffer (0.5 M sodium sulfate)) | quaternary structure (monomer/dimer) by AUC ([1]; PBS buffer where stated) | subunit composition of separated dimer and monomer after incubation ([1]; room temperature for up to 48 hours, after gel filtration) | Km (DPP-IV [2]; High salt buffer) [µM] | kcat (DPP-IV [2]; High salt buffer) [s⁻¹] | Km (DPP-IV [2]; PBS buffer) [µM] | kcat (DPP-IV [2]; PBS buffer) [s⁻¹] | decrease in kcat (DPP-IV [2]; compared with wild type rDPP-IV) | AUC analysis or catalytic activities in low salt buffer (DPP-IV [2]; low salt buffer compared to PBS buffer (data not shown)) | Stokes' radius (Rs) [3] | specific activity on dilution (DPP-IV [4]) | Sedimentation coefficient (s20, w) ([1]; High salt buffer) [S] | Anhydrous frictional ratio (f/fo) ([1]; PBS buffer) | Sedimentation coefficient (s20, w) ([1]; PBS buffer) | Stokes' radius (Rs) ([1]; High salt buffer) | Stokes' radius (Rs) ([1]; PBS buffer)
H750A: DPP-IV mutant, H750 mutated to Ala; mixture of dimer and monomer (protein) SRKTYTLTDYLKNTYRLKLYSLRWISDHEYLYKQENNILVFNAEYGNSSVFLENSTFDEFGHSINDYSISPDGQFILLEYNYVKQWRHSYTASYDIYDLNKRQLITEERIPNNTQWVTWSPVGHKLAYVWNNDIYVKIEPNLPSYRITWTGKEDIIYNGITDWVYEEEVFSAYSALWWSPNGTFLAYAQFNDTEVPLIEYSFYSDESLQYPKTVRVPYPKAGAVNPTVKFFVVNTDSLSSVTNATSIQITAPASMLIGDHYLCDVTWATQERISLQWLRRIQNYSVMDICDYDESSGRWNCLVARQHIEMSTTGWVGRFRPSEPHFTLDGNSFYKIISNEEGYRHICYFQIDKKDCTFITKGTWEVIGIEALTSDYLYYISNEYKGMPGGRNLYKIQLSDYTKVTCLSCELNPERCQYYSVSFSKEAKYYQLRCSGPGLPLYTLHSSVNDKGLRVLEDNSALDKMLQNVQMPSKKLDFIILNETKFWYQMILPPHFDKSKKYPLLLDVYAGPCSQKADTVFRLNWATYLASTENIIVASFDGRGSGYQGDKIMHAINRRLGTFEVEDQIEAARQFSKMGFVDNKRIAIWGWSYGGYVTSMVLGSGSGVFKCGIAVAPVSRWEYYDSVYTERYMGLPTPEDNLDHYRNSTVMSRAENFKQVEYLLIHGTADDNVHFQQSAQISKALVDVGVDFQAMWYTDEDHGIASSTAHQAIYTHMSHFIKQCFSLP | mixture of dimer-monomer | mixture of DPP-IV dimer and monomer | maintain their subunit compositions | 125 | 16 | 77 | 31 | about 3 fold | no differences | 5.7 nm and 4.6 nm | constant |  |  |  |  | 
H750A dimer: dimer of H750A DPP-IV separated by gel filtration (protein) SRKTYTLTDYLKNTYRLKLYSLRWISDHEYLYKQENNILVFNAEYGNSSVFLENSTFDEFGHSINDYSISPDGQFILLEYNYVKQWRHSYTASYDIYDLNKRQLITEERIPNNTQWVTWSPVGHKLAYVWNNDIYVKIEPNLPSYRITWTGKEDIIYNGITDWVYEEEVFSAYSALWWSPNGTFLAYAQFNDTEVPLIEYSFYSDESLQYPKTVRVPYPKAGAVNPTVKFFVVNTDSLSSVTNATSIQITAPASMLIGDHYLCDVTWATQERISLQWLRRIQNYSVMDICDYDESSGRWNCLVARQHIEMSTTGWVGRFRPSEPHFTLDGNSFYKIISNEEGYRHICYFQIDKKDCTFITKGTWEVIGIEALTSDYLYYISNEYKGMPGGRNLYKIQLSDYTKVTCLSCELNPERCQYYSVSFSKEAKYYQLRCSGPGLPLYTLHSSVNDKGLRVLEDNSALDKMLQNVQMPSKKLDFIILNETKFWYQMILPPHFDKSKKYPLLLDVYAGPCSQKADTVFRLNWATYLASTENIIVASFDGRGSGYQGDKIMHAINRRLGTFEVEDQIEAARQFSKMGFVDNKRIAIWGWSYGGYVTSMVLGSGSGVFKCGIAVAPVSRWEYYDSVYTERYMGLPTPEDNLDHYRNSTVMSRAENFKQVEYLLIHGTADDNVHFQQSAQISKALVDVGVDFQAMWYTDEDHGIASSTAHQAIYTHMSHFIKQCFSLP |  |  |  |  |  | 79 | 73 |  |  | 5.7^a nm |  | 5.0 | 1.4 | 8.5 S and 8.4 S | 4.9^b nm | 5.1^b nm
